In this experiment the target is Flag-tagged full length HDAC1 (UniProt Q13547 1-482). As to the kind of experiment: co-IP.
Sequence of Flag-tagged full length HDAC1 (Q13547 whole entry): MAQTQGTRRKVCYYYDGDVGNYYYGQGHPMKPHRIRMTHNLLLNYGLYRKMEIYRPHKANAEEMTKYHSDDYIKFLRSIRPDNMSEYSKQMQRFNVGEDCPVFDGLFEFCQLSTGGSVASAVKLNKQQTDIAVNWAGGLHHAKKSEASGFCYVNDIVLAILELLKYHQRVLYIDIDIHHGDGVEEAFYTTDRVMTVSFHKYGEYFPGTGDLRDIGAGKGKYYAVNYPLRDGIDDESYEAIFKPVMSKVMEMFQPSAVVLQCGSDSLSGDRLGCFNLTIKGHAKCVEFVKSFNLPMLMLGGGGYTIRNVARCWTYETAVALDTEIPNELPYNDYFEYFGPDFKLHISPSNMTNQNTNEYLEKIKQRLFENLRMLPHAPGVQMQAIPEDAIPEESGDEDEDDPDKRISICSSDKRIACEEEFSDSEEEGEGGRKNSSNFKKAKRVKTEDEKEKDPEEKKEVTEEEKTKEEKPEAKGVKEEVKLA

B1: GFP-p25 (full length p25, overexpressed in HEK293T cells) (domain or fragment)
chain: not shown
On to B1, for which the “fold interaction against p35” value is over 12 fold.

Values taken from paper PMC2912147 (Neuron, 2008).
